Data from PMC9342608, “The OsEIL1‐OsERF115‐target gene regulatory module controls grain size and weight in rice”.

Target: T1, GST-OsEIL1N (Oryza sativa, UniProt Q10M41 1-350)
T1 sequence: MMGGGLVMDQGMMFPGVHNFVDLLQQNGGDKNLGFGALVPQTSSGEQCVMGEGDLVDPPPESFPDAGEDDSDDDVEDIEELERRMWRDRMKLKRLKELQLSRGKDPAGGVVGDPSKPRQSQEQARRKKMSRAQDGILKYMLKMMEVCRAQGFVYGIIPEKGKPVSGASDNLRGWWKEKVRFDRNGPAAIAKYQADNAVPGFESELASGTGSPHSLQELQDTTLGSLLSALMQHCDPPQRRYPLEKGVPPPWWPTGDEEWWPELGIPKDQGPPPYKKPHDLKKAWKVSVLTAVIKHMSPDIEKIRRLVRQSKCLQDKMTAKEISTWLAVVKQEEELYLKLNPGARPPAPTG
Experiment: EMSA; EMSA/Gel-Shift Binding Buffer (Beyotime GS005), 30 min at room temperature, 6% native PAGE; salt and pH not stated
Conditions: protein: recombinant; tags: GST (N-terminal, pGEX-4T); label: 5' biotin on strand 1; blunt

B1: OsERF115 probe 1 (EBS1) (dsDNA)
DNA 1: CATAACTTTTCAGTCACATCATCTCCAATTTCAACCAAAATCCAAAC
DNA 2: GTTTGGATTTTGGTTGAAATTGGAGATGATGTGACTGAAAAGTTATG
**Q.** Does B1 bind?
**A.** binds

B2: OsERF115 probe 2 (EBS2) (dsDNA)
DNA 1: ATATGGCTAGAAACATAAATGTAGCTACTTTCTCTGTGCACGA
DNA 2: TCGTGCACAGAGAAAGTAGCTACATTTATGTTTCTAGCCATAT
**Q.** Does B2 bind?
**A.** binds

B3: OsERF115 probe 3 (EBS3) (dsDNA)
DNA 1: GATAGAACTACGTATGCACGGACCGGCTCATCACTAGAGGAG
DNA 2: CTCCTCTAGTGATGAGCCGGTCCGTGCATACGTAGTTCTATC
**Q.** Does B3 bind?
**A.** binds
